Test results from article PMC5422525.

What was measured:
[1] = biological target: Caulobacter crescentus ClpX (C. crescentus) (UniProt B8GX14)
[2] = biological target: Escherichia coli ClpX (E. coli) (UniProt P0A6H1)
Sequence of UniProt P0A6H1 (P0A6H1 whole entry): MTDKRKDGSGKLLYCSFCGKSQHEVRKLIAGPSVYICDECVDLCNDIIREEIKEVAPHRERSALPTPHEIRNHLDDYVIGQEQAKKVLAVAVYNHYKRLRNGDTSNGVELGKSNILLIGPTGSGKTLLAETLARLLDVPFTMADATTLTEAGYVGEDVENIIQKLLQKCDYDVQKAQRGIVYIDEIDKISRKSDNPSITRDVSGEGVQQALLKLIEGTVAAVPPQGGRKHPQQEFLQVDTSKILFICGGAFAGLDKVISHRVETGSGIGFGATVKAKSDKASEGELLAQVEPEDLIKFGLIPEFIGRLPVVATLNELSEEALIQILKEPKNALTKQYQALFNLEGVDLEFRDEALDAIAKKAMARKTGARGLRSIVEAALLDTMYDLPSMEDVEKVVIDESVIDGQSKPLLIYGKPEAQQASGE

Sequence of UniProt B8GX14 (B8GX14 whole entry): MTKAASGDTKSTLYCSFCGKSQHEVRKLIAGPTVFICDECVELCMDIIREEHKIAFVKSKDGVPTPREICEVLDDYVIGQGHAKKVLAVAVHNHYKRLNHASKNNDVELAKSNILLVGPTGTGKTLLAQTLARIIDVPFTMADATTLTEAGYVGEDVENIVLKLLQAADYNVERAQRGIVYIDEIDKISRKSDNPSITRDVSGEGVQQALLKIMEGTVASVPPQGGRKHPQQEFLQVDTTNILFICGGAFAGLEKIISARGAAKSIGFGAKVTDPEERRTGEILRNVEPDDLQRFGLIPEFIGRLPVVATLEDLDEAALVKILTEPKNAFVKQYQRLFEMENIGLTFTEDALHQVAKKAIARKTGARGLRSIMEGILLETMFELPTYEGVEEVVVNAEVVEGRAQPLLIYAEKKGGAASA

K (activation): degradation of 1 uM GFP-ssrA by 50 nM ClpX6 with varying concentrations of ClpP14, initial rates fitted to a first-order binding equation [1] [nM]	K (activation): degradation of 1 uM GFP-ssrA by 50 nM ClpX6 with varying concentrations of ClpP14, initial rates fitted to a first-order binding equation [2] [nM]	Substance
9.1	12.1	Caulobacter crescentus ClpP (from UniProt B8GX16 1-209) (enzyme)
–	24.1	Escherichia coli ClpP (from UniProt P0A6G7 15-207) (enzyme)
